Results taken from patent US20200087364A1 (IMMATICS BIOTECHNOLOGIES, published 2020).

What follows are binders tested against T1, HLA-A*01:01 (human) (assay: UV-ligand exchange, anti-b2m ELISA).
T1 construct: MHC class I monomer first loaded with a UV-sensitive peptide (not identified) that is cleaved by UV irradiation and exchanged for the tested peptide; captured on streptavidin plates, detected with anti-β2m; also called peptide-receptive MHC molecules
Procedure, shortened: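 Peptide–MHC complexes made by UV-ligand exchange of a UV-cleavable peptide; exchange yield measured by ELISA on streptavidin-coated plates, samples diluted 100-fold, 1 h 37 °C. Detection with 2 ug/ml HRP anti-β2m, TMB, A450; refolded HLA-A*02:01/MLA-001 monomer standards 15-500 ng/ml.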

Binder | peptide exchange yield [%]
AVMEAAFVY | 50 to 75
ETSFSTSHY | > 75
MTSTEQSLYY | 50 to 75
YADPSANRDLL | 20 to 50
ITVDVRDEF | 10 to 20
LTDRDVSFY | > 75
YEPATMEQY | 20 to 50
MSPDIALLYL | 50 to 75
FVDTKVPEH | 20 to 50
SLIIDDTEY | 20 to 50
DTGYLQLYY | > 75
RFDDINQEF | 10 to 20
SGALDEAAAY | 20 to 50
FHADSDDESF | 10 to 20
TAKAPSTEY | 20 to 50

Now from value to binder:

peptide exchange yield [%] | Binder
50 to 75 | RLSTIRHLY
> 75 | NSENHILKY
> 75 | WSDSTSQTIY
> 75 | ASSLDSLHY
> 75 | YMSPDIALLY
50 to 75 | FTAEEGQLY
50 to 75 | NKEINYFMY
50 to 75 | VACGNNPVY
> 75 | LTDTGYLQLY
50 to 75 | ESAATGQLDY
50 to 75 | EDDEDEDLY
20 to 50 | MADRGEARL
20 to 50 | SRSDFEWVY
50 to 75 | MTSTEQSLY
10 to 20 | SWSAGENDSYS
